Measured values reported in patent US6773917 (CURATORS OF THE UNIVERSITY OF MISSOURI, dated 2004).

Experiments:
[1] = target: T1, in vitro imported Arabidopsis thaliana plastid PDC E1α subunit (Arabidopsis thaliana, UniProt O24457 69-428); assay: in vitro import into chloroplasts and assembly
T1 construct: Translated in vitro and imported into chloroplasts
T1 sequence: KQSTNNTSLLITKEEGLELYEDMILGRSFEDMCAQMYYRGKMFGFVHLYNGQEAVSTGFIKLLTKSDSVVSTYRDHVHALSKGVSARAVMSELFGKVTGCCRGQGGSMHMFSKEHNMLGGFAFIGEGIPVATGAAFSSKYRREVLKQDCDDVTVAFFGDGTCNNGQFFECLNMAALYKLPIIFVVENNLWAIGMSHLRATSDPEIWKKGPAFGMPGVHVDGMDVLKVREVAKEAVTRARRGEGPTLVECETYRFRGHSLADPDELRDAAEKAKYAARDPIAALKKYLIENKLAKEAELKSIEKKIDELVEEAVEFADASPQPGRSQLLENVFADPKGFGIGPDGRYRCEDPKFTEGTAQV

[2] = target: T2, plastid pyruvate dehydrogenase heterotetramer (imported plastid PDC E1α and E1β subunits) (Arabidopsis thaliana, UniProt O24457 69-428; Q9C6Z3 74-406); assay: in vitro import into chloroplasts and assembly
T2 construct: also called this heterotetramer
T2 sequence 1: T1 sequence
T2 sequence 2: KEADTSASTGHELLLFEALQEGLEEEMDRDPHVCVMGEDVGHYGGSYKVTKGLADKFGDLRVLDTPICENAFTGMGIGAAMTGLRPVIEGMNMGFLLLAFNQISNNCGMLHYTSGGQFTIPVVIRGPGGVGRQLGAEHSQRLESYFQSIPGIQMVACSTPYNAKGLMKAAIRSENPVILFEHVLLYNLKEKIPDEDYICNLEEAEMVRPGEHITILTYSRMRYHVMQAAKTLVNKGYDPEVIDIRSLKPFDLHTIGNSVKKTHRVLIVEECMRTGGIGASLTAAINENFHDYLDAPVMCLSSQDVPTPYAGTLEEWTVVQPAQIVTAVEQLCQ

B1: in vitro imported Arabidopsis thaliana plastid PDC E1β subunit (enzyme)
chain: T2 sequence 2
notes: Translated in vitro and imported into chloroplasts
[1]
  binding result: binds

B2: in vitro imported Arabidopsis thaliana plastid PDC E2 subunit (enzyme)
chain: IREIFMPALSSTMTEGKIVSWIKTEGEKLAKGESVVVVESDKADMDVETFYDGYLAAIVVGEGETAPVGAAIGLLAETEAEIEEAKSKAASKSSSSVAEAVVPSPPPVTSSPAPAIAQPAPVTAVSDGPRKTVATPYAKKLAKQHKVDIESVAGTGPFGRITASDVETAAGIAPSKSSIAPPPPPPPPVTAKATTTNLPPLLPDSSIVPFTAMQSAVSKNMIESLSVPTFRVGYPVNTDALDALYEKVKPKGVTMTALLAKAAGMALAQHPVVNASCKDGKSFSYNSSINIAVAVAINGGLITPVLQDADKLDLYLLSQKWKELVGKARSKQLQPHEYNSGTFTLSNLGMFGVDRFDAILPPGQGAIMAVGASKPTVVADKDGFFSVKNTMLVNVTADHRIVYGADLAAFLQTFAKIIENPDSLTL
notes: Translated in vitro and imported into chloroplasts; also called imported PDC E2 subunits
[2]
  binding result: binds
